# Test results as given in PMC8402870.
# Like-named read-outs stand apart in the source and are kept apart here.
# What was measured:
# [1] = target: Pf4r, repressor C protein of the Pf4 filamentous phage (wild type) (Pf4 filamentous phage (prophage of Pseudomonas aeruginosa PAO1)); assay: SEC-MALS; Superdex 75 5/150 equilibrated with PBS; samples prepared in 20 mM HEPES pH 7.5, 300 mM NaCl, 10% glycerol, 2 mM TCEP; 50 uL loaded at 20 mg/mL; monomer to dimer
# [2] = test system: T1, Pf4r (repressor C) (Pseudomonas aeruginosa PAO1 (Pf4 filamentous prophage)), ORF:4ff4b857; assay: EMSA
# T1 sequence: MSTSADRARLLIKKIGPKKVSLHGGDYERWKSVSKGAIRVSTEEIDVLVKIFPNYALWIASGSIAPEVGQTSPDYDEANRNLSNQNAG
# [3] = target: Pf6r, repressor of the Pf6 filamentous phage (wild type) (Pf6 filamentous phage (prophage of Pseudomonas aeruginosa PAO1)); assay: SEC-MALS; Superdex 75 5/150 equilibrated with PBS; samples prepared in 20 mM HEPES pH 7.5, 300 mM NaCl, 10% glycerol, 2 mM TCEP; 50 uL loaded at 20 mg/mL; monomer to dimer
Substance,binding [2],also measured
"Pf4r, repressor C protein of the Pf4 filamentous phage (wild type) (natural protein)",–,stoichiometry N [1]: 2
TTTTGGGGCCGATTTTCTTGATTAATAGTCTTGCTCTATCGGCTGACGTGCTCATATAGAAATTTATTCCGGTGAAATAGTTGCCCTGACGTGGCTTTGGGGAAATAATTTCTCCAGGGTAATTATTTCTCTA (double strand) [Ppf4r-G>T],binds more weakly,–
"Pf6r, repressor of the Pf6 filamentous phage (wild type) (natural protein)",–,stoichiometry N [3]: 2
TTTTGGGGCCGATTTTCTTGATTAATAGTCTTGCTCTATCGGCTGACGTGCTCATATAGAAATTTATTCCGGTGAAATAGTTGCCCTGACGTGGCTTTGGGGAGATAATTTCTCCAGGGTAATTATTTCTCTA (double strand) [Ppf4r-doubleSNP],no binding,–
TTTTGGGGCCGATTTTCTTGATTAATAGTCTTGCTCTATCGGCTGACGTGCTCATATAGAAATTTATTCCGGGGAAATAGTTGCCCTGACGTGGCTTTGGGGAGATAATTTCTCCAGGGTAATTATTTCTCTA (double strand) [Ppf4r-A>G],no binding,–
TTTTGGGGCCGATTTTCTTGATTAATAGTCTTGCTCTATCGGCTGACGTGCTCATATAGAAATTTATTCCGGGGAAATAGTTGCCCTGACGTGGCTTTGGGGAAATAATTTCTCCAGGGTAATTATTTCTCTA (double strand) [Ppf4r],–,"binding ([2]; EMSA: 10 mM Tris, 1 mM DTT, 2.5% glycerol, 5 ug/uL BSA, 0.05% NP-40, 80 mM KCl, 5 mM MgCl2, 2 mM EDTA, 10 fmol probe, 30 min, 30 C (protein diluted in TE pH …)): binds"
